B1: GST-ZCCHC3 (natural protein, UniProt Q9NUD5 1-403, looked up)
chain: MATGGGAEEERKRGRPQLLPPARPAARGEEADGGREKMGWAQVVKNLAEKKGEFREPRPPRREEESGGGGGSAGLGGPAGLAAPDLGDFPPAGRGDPKGRRRDPAGEAVDPRKKKGAAEAGRRKKAEAAAAAMATPARPGEAEDAAERPLQDEPAAAAGPGKGRFLVRICFQGDEGACPTRDFVVGALILRSIGMDPSDIYAVIQIPGSREFDVSFRSAEKLALFLRVYEEKREQEDCWENFVVLGRSKSSLKTLFILFRNETVDVEDIVTWLKRHCDVLAVPVKVTDRFGIWTGEYKCEIELRQGEGGVRHLPGAFFLGAERGYSWYKGQPKTCFKCGSRTHMSGSCTQDRCFRCGEEGHLSPYCRKGIVCNLCGKRGHAFAQCPKAVHNSVAAQLTGVAGH
modifications: lysine residues labelled with a Blue-NHS labeling kit, dye:protein molar ratio of 3
notes: also called recombinant ZCCHC3

Key:
Test in all cases: MST
GST-cGAS [1] = tested on: GST-cGAS
GST-ZCCHC3;GST-cGAS = tested on: GST-ZCCHC3;GST-cGAS
GST-ZCCHC3 = tested on: GST-ZCCHC3
GST-cGAS [2] = biological target: T1, GST-cGAS (UniProt Q8N884 1-522); conditions: both partners purified
T1 construct: also called recombinant cGAS
T1 sequence (Q8N884 whole entry): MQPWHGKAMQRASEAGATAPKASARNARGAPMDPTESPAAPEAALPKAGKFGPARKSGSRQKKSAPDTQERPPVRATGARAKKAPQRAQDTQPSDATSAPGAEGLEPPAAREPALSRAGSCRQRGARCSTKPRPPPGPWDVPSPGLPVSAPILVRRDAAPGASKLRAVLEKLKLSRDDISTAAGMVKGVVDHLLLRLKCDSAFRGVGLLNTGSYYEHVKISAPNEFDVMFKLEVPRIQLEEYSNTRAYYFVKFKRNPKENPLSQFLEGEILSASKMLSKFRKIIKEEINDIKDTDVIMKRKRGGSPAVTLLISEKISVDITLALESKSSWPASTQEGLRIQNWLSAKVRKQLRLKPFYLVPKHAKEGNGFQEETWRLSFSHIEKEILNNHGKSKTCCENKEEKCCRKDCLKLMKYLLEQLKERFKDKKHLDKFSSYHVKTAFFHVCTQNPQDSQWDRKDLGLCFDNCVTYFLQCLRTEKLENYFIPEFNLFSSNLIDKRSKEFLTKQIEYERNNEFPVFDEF

Molecule | Kd (GST-cGAS [1]) [nM] | Kd (GST-ZCCHC3;GST-cGAS) [nM] | Kd (GST-ZCCHC3) [nM] | Kd (GST-cGAS [2]) [nM]
HSV60 | 600 | 7.62 | 866 | –
B1 | – | – | – | 79.6 ± 12.5

— PMC6105683 (Nature Communications, 2018)
